Assay results published in the supplement of paper PMC9876800.

Tested on: peptide library, one residue held at a place counted from the S/T acceptor
Experiment: relative phosphorylation of the sub-library (ratio to the mean residue at this position); higher = residue favoured
Conditions: human
In short: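 Spots on streptavidin membranes were phosphorimaged and quantified by densitometry to measure phosphorylation of biotinylated degenerate peptide sub-libraries by purified recombinant kinases, human or orthologue constructs. The reactions ran in 384-well plates for 90 min under kinase-specific conditions, with peptides at 50 μM and 50 μM ATP spiked with γ-32P-ATP. Relative sub-library phosphorylation is the ratio to the mean residue at that position.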

PRKD3, construct: Full length, sequence (O94806 whole entry, looked up): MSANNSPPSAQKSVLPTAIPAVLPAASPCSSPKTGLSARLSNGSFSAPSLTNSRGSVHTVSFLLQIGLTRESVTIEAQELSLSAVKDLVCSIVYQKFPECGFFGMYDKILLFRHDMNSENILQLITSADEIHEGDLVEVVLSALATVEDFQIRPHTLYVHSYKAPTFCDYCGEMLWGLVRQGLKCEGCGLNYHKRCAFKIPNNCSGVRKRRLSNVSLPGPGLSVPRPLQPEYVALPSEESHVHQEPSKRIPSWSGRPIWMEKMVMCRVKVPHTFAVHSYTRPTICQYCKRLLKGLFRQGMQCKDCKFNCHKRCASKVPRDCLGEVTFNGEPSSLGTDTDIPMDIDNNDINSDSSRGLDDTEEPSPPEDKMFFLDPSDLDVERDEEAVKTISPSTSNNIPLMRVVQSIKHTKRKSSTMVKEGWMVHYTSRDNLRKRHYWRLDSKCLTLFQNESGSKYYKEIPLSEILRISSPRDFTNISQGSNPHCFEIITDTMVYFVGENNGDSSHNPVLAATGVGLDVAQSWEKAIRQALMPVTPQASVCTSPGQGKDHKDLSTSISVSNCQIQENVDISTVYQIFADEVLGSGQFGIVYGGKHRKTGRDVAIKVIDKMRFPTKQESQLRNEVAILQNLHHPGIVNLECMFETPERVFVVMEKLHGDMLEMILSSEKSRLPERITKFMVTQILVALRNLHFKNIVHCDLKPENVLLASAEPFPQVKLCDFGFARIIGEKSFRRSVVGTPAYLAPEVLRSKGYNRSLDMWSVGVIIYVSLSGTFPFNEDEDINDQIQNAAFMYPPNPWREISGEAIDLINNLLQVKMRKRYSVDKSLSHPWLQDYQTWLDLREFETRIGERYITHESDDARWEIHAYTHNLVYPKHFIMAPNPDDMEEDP
CHEK1, construct: Full length, sequence (O14757 whole entry, looked up): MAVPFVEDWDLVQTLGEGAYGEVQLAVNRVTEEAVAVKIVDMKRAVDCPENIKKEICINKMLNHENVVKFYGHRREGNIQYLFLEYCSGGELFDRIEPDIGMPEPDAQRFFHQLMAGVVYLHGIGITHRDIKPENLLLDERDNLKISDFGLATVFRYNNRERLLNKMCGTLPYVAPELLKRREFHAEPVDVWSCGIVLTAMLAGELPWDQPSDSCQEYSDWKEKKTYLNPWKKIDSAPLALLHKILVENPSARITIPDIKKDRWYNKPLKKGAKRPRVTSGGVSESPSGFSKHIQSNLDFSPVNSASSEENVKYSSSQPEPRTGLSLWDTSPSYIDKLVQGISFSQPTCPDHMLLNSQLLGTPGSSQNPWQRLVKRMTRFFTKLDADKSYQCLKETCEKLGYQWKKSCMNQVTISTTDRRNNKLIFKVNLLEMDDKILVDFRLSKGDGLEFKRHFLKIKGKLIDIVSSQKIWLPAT
CSNK1G1, construct: aa21-end, sequence (Q9HCP0 21-422, looked up): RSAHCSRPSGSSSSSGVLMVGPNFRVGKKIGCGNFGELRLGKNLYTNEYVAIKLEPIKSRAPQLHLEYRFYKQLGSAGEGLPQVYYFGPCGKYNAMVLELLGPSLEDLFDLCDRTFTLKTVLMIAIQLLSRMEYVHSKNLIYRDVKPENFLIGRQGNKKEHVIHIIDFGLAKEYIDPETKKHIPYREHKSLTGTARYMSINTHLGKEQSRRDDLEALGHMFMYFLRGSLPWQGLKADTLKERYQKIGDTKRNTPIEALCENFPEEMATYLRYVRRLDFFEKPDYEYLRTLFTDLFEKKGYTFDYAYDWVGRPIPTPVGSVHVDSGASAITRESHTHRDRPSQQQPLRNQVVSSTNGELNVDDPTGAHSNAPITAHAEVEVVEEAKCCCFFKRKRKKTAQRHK
PRKX, construct: Full length, sequence (P51817 whole entry, looked up): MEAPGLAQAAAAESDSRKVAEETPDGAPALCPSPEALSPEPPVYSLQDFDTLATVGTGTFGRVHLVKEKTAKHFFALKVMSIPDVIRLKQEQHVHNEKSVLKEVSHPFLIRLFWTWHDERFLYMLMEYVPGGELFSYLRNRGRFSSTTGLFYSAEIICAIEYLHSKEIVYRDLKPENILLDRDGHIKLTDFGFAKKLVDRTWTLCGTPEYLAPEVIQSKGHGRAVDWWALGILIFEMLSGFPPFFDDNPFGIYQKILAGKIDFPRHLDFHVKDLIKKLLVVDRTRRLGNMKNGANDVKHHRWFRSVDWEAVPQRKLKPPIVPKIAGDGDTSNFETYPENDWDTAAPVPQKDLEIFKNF

CSNK1G1, construct: aa21-end (from UniProt Q9HCP0)
relative phosphorylation
Conditions | at +1 | at +2 | at +3 | at +4 | at -1 | at -2 | at -3 | at -4 | at -5
A fixed | 0.872 | 1.05 | 1.29 | 1.13 | 1.38 | 2.1 | 0.918 | 1.23 | 1.22
D fixed | 0.317 | 0.551 | 0.757 | 0.828 | 0.406 | 1 | 5.14 | 1.25 | 1.11
E fixed | 0.4 | 0.293 | 0.823 | 0.662 | 0.47 | 1.13 | 2.32 | 1.12 | 0.901
F fixed | 0.853 | 1.21 | 1.31 | 1.45 | 0.713 | 0.511 | 0.471 | 0.984 | 0.913
G fixed | 0.611 | 1.02 | 1.62 | 1.19 | 1.53 | 1.19 | 0.734 | 1.07 | 1.04
H fixed | 0.731 | 1.71 | 1.03 | 0.976 | 0.983 | 0.714 | 0.633 | 0.918 | 1.1
I fixed | 2.43 | 1.06 | 0.755 | 0.921 | 0.927 | 1.11 | 0.42 | 0.799 | 0.734
K fixed | 0.461 | 1.03 | 0.731 | 0.812 | 1.27 | 0.674 | 0.644 | 0.981 | 1.44
L fixed | 2.32 | 0.922 | 0.962 | 0.894 | 1.06 | 0.949 | 0.482 | 0.81 | 0.892
M fixed | 1.77 | 0.951 | 0.957 | 0.943 | 1.01 | 0.63 | 0.389 | 0.796 | 0.801
N fixed | 0.619 | 0.976 | 0.842 | 0.786 | 0.597 | 1.53 | 0.758 | 0.877 | 1.02
P fixed | 0.326 | 0.369 | 0.774 | 1.15 | 1.36 | 1.08 | 0.646 | 1 | 0.87
Q fixed | 0.685 | 0.798 | 0.732 | 0.839 | 0.886 | 1.08 | 0.546 | 0.76 | 0.798
R fixed | 0.771 | 1.01 | 0.884 | 0.713 | 1.28 | 0.919 | 1.07 | 0.814 | 1.05
V fixed | 2.03 | 1.01 | 0.76 | 0.947 | 0.978 | 1.26 | 0.582 | 0.763 | 0.875
W fixed | 0.861 | 1.25 | 1.4 | 1.35 | 1.25 | 0.608 | 0.636 | 1.72 | 1.24
Y fixed | 0.935 | 1.79 | 1.37 | 1.41 | 0.898 | 0.511 | 0.604 | 1.11 | 1
pThr fixed | 0.575 | 0.524 | 0.83 | 1.73 | 0.534 | 3.07 | 34 | 4.36 | 1.61
pTyr fixed | 0.734 | 3.17 | 4.7 | 1.83 | 0.64 | 2.15 | 5.42 | 3.67 | 2.21

CHEK1, construct: Full length (from UniProt O14757)
relative phosphorylation
Conditions | at +1 | at +2 | at +3 | at +4 | at -1 | at -2 | at -3 | at -4 | at -5
A fixed | 0.806 | 1.04 | 0.824 | 0.997 | 0.779 | 1.18 | 0.579 | 1.17 | 0.706
D fixed | 1.03 | 1.19 | 1.4 | 1.19 | 1.06 | 0.387 | 0.353 | 0.714 | 0.379
E fixed | 0.981 | 0.932 | 1.01 | 0.882 | 0.709 | 0.977 | 0.853 | 1.15 | 0.261
F fixed | 1.43 | 0.719 | 0.731 | 0.754 | 0.637 | 1.16 | 0.39 | 0.817 | 2.06
G fixed | 1.21 | 0.978 | 1.16 | 1.18 | 0.915 | 0.619 | 0.685 | 0.811 | 0.331
H fixed | 1.21 | 1.38 | 1.2 | 1.17 | 1.27 | 2.01 | 2.02 | 1.14 | 0.51
I fixed | 0.801 | 0.808 | 0.832 | 0.968 | 0.396 | 0.56 | 0.253 | 0.952 | 2.21
K fixed | 0.614 | 0.531 | 0.588 | 0.687 | 1.54 | 0.887 | 2.36 | 1.45 | 0.405
L fixed | 0.98 | 0.756 | 0.908 | 1.18 | 0.805 | 0.738 | 0.281 | 0.919 | 2.9
M fixed | 1.57 | 0.935 | 0.985 | 1.06 | 0.901 | 1.14 | 0.625 | 1.26 | 1.98
N fixed | 1.65 | 1.82 | 1.47 | 1.23 | 1.68 | 1.42 | 0.992 | 0.9 | 0.361
P fixed | 0.429 | 0.973 | 1.2 | 1.57 | 1.84 | 0.547 | 1.37 | 0.458 | 0.49
Q fixed | 1.19 | 1.36 | 1.15 | 1.12 | 1.36 | 1.17 | 0.995 | 1.07 | 0.422
R fixed | 0.599 | 0.692 | 0.57 | 0.547 | 0.98 | 0.895 | 3.45 | 1.41 | 0.759
V fixed | 0.686 | 0.96 | 0.802 | 0.713 | 0.48 | 0.701 | 0.323 | 1.05 | 1.25
W fixed | 0.94 | 1.01 | 1.18 | 0.874 | 0.682 | 1.2 | 0.857 | 0.829 | 1.32
Y fixed | 0.869 | 0.921 | 0.995 | 0.886 | 0.963 | 1.39 | 0.617 | 0.902 | 0.661
pThr fixed | 0.831 | 0.822 | 0.733 | 0.892 | 0.188 | 0.139 | 0.198 | 0.311 | 0.164
pTyr fixed | 0.821 | 1.17 | 0.94 | 0.812 | 0.495 | 0.382 | 0.193 | 0.343 | 0.443

PRKD3, construct: Full length (from UniProt O94806)
relative phosphorylation
Conditions | at +1 | at +2 | at +3 | at +4 | at -1 | at -2 | at -3 | at -4 | at -5
A fixed | 0.865 | 1.03 | 0.829 | 0.85 | 0.845 | 1.21 | 1.03 | 1.31 | 0.989
D fixed | 0.493 | 0.636 | 0.664 | 0.709 | 0.598 | 0.341 | 0.231 | 0.402 | 0.344
E fixed | 0.444 | 0.536 | 0.561 | 0.66 | 0.486 | 0.418 | 0.272 | 0.711 | 0.332
F fixed | 1.09 | 1.07 | 1 | 1.09 | 0.812 | 0.56 | 0.417 | 0.797 | 0.895
G fixed | 0.727 | 1.06 | 1.17 | 1.21 | 0.6 | 0.453 | 0.375 | 1.21 | 0.563
H fixed | 1.33 | 1.36 | 1.22 | 1.29 | 1.15 | 0.839 | 0.572 | 1.14 | 0.525
I fixed | 1.02 | 0.628 | 0.744 | 0.795 | 0.526 | 0.496 | 0.321 | 0.678 | 1.11
K fixed | 1.31 | 1.27 | 1.21 | 1.22 | 2.07 | 2.85 | 2.2 | 1.98 | 0.895
L fixed | 1.06 | 0.824 | 0.957 | 0.908 | 1.18 | 0.867 | 0.359 | 0.809 | 3.37
M fixed | 1.16 | 0.929 | 0.883 | 0.854 | 1.03 | 1.43 | 0.444 | 1.15 | 0.774
N fixed | 1.48 | 1.26 | 1.02 | 1.1 | 1.38 | 0.795 | 0.418 | 0.649 | 0.483
P fixed | 0.453 | 1.24 | 1.72 | 1.31 | 1.1 | 0.374 | 0.478 | 0.476 | 1.08
Q fixed | 1.08 | 0.877 | 0.984 | 1.1 | 0.889 | 1.83 | 0.588 | 1.16 | 0.866
R fixed | 1.28 | 1.38 | 1.05 | 0.774 | 1.79 | 2.58 | 8.02 | 2.12 | 1.8
V fixed | 0.988 | 0.718 | 0.812 | 0.774 | 0.751 | 0.778 | 0.333 | 0.85 | 1.61
W fixed | 0.885 | 1.05 | 0.991 | 1.31 | 0.708 | 0.526 | 0.436 | 0.638 | 0.544
Y fixed | 1.35 | 1.12 | 1.19 | 1.04 | 1.08 | 0.657 | 0.51 | 0.934 | 0.827
pThr fixed | 0.532 | 0.513 | 0.622 | 0.51 | 0.321 | 0.349 | 0.266 | 0.508 | 0.377
pTyr fixed | 0.589 | 0.609 | 0.669 | 0.608 | 0.662 | 0.409 | 0.495 | 0.511 | 0.572

PRKX, construct: Full length (from UniProt P51817)
relative phosphorylation
Conditions | at +1 | at +2 | at +3 | at +4 | at -1 | at -2 | at -3 | at -4 | at -5
A fixed | 0.71 | 1.3 | 0.688 | 0.785 | 0.651 | 0.289 | 0.299 | 1.03 | 1.08
D fixed | 0.862 | 2.53 | 1.6 | 2.09 | 0.698 | 0.224 | 0.2 | 0.876 | 1.11
E fixed | 0.814 | 1.04 | 1.32 | 1.61 | 0.424 | 0.2 | 0.208 | 0.881 | 0.985
F fixed | 0.849 | 0.505 | 0.697 | 0.599 | 0.425 | 0.212 | 0.128 | 0.515 | 0.596
G fixed | 1.06 | 1.27 | 1.49 | 1.08 | 1.29 | 0.382 | 0.477 | 1.1 | 1.4
H fixed | 0.919 | 1.16 | 1.31 | 1.04 | 1.18 | 0.662 | 1.14 | 1.09 | 1.26
I fixed | 0.872 | 0.411 | 0.344 | 0.522 | 0.184 | 0.143 | 0.111 | 0.357 | 0.528
K fixed | 1.55 | 0.713 | 1.38 | 1.12 | 2.79 | 4.76 | 3.29 | 2.53 | 2.14
L fixed | 0.859 | 0.47 | 0.627 | 0.572 | 0.399 | 0.185 | 0.112 | 0.451 | 0.507
M fixed | 0.884 | 0.504 | 0.462 | 0.643 | 0.534 | 0.176 | 0.134 | 0.575 | 0.651
N fixed | 1.41 | 1.47 | 1.52 | 1.48 | 1.7 | 0.343 | 0.383 | 0.914 | 1.11
P fixed | 0.584 | 1.84 | 1.24 | 1.3 | 1.55 | 0.395 | 0.797 | 1.22 | 0.811
Q fixed | 1.47 | 1.24 | 1.36 | 1.23 | 1.41 | 0.483 | 0.444 | 1.18 | 0.807
R fixed | 1.57 | 0.881 | 1.13 | 1.06 | 2.37 | 7.88 | 8.71 | 2.58 | 2.12
V fixed | 0.801 | 0.498 | 0.413 | 0.623 | 0.217 | 0.143 | 0.112 | 0.412 | 0.454
W fixed | 1.02 | 0.624 | 0.752 | 0.637 | 0.457 | 0.295 | 0.246 | 0.686 | 0.731
Y fixed | 0.766 | 0.548 | 0.669 | 0.608 | 0.711 | 0.234 | 0.204 | 0.613 | 0.71
pThr fixed | 1.32 | 1.05 | 1.35 | 2.62 | 0.462 | 0.431 | 0.421 | 0.921 | 1.04
pTyr fixed | 1.54 | 1.38 | 1.3 | 1.55 | 0.999 | 0.374 | 0.345 | 0.864 | 0.882
